{"source": "patent US8158851B2", "about": "“Transgenic high tryptophan plants” (Monsanto Technology LLC, priority 2002, dated 2012)", "molecules": {"B1": {"name": "F298W (protein)", "chain": "MVTIIQDDGAETYETKGGIQVSRKRRPTDYANAIDNYIEKLDSHRGAVFSSNYEYPGRYTRWDTAIVDPPLGISCFGRKMWIEAYNGRGEVLLDFITEKLKATPDLTLGASSTRRLDLTVNEPDRVFTEEERSKIPTVFTALRAIVDLFYSSADSAIGLFGAFGYDLAFQFDAIKLSLARPEDQRDMVLFLPDEILVVDHYSAKAWIDRYDFEKDGMTTDGKSSDITPDPFKTTDTIPPKGDHRPGEYSELVVKAKESFRRGDLFEVVPGQKFMERCESNPSAISRRLKAINPSPYSWFINLGDQEYLVGASPEMFVRVSGRRIETCPISGTIKRGDDPIADSEQILKLLNSKKDESELTMCSDVDRNDKSRVCEPGSVKVIGRRQIEMYSRLIHTVDHIEGRLRDDMDAFDGFLSHAWAVTVTGAPKLWAMRFIEGHEKSPRAWYGGAIGMVGFNGDMNTGLTLRTIRIKDGIAEVRAGATLLNDSNPQEEEAETELKASAMISAIRDAKGTNSAATKRDAAKVGTGVKILLVDHEDSFVHTLANYFRQTGATVSTVRSPVAADVFDRFQPDLVVLSPGPGSPTDFDCKATIKAARARDLPIFGVCLGLQALAEAYGGELRQLAVPMHGKPSRIRVLEPGLVFSGLGKEVTVGRYHSIFADPATLPRDFIITAESEDGTIMGIEHAKEPVAAVQFHPESIMTLGQDAGMRMIENVVVHLTRKAKTKAA", "modifications": "An A. tumefaciens mutant."}, "B2": {"name": "S51F (protein)", "chain": "B1 chain with S51F, W298F", "modifications": "An A. tumefaciens mutant."}, "B3": {"name": "Ruta graveolens anthranilate synthase α-subunit: Ruta graveolens anthranilate synthase α-subunit isoenzyme, Genbank GI 960291 (protein, listed as Ruta graveolens)", "chain": "MSAAATSMQSLKFSNRLVPPSRRLSPVPNNVTCNNLPKSAAPVRTVKCCASSWNSTINGAAATTNGASAASNGASTTTTTYVSDATRFIDSSKRANLVPLYRCIFADHLTPVLAYRCLVQEDDKETPSFLFESVEPGRISTVGRYSVVGAHPVMEVIAKDNMVTVMDHEKGSLVEEVVDDPMEIPRRISEDWKPQIIDDLPEAFCGGWVGFFSYDTVRYVEKKKLPFSKAPQDDRNLADMHLGLYNDVIVFDHVEKKVYVIHWVRLNQQSSEEKAYAEGLEHLERLVSRVQDENTPRLAPGSIDLHTGHFGPPLKKSNMTCEEYKMAVLAAKEHIQAGDIFQIVLSQRFERRTFADPFEVYRALRVVNPSPYMTYMQARGCVLVASSPEILTRVKKNKIVNRPLAGTARRGRTTEEDEMLETQLLKDAKQCAEHVMLVDLGRNDVGKVSKSGSVKVEKLMNVERYSHVMHISSTVTGELQDNLSCWDALRAALPVGTVSGAPKVKAMELIDELEVNRRGPYSGGFGGISFTGDMDIALALRTIVFQTGTRYDTMYSYKNATKRRQWVAYLQAGAGIVADSDPDDEHRECQNKAAGLARAIDLAESAFVNKSSS"}}, "key": {"[1]": {"molecular_target": "T1, Rhizobium meliloti anthranilate synthase, monomeric (SEQ ID NO: 7) (Rhizobium meliloti, UniProt P15395)", "T1 construct": "made in house; host or cells: E. coli BL-21, plasmid pMON66596 (pSE280)", "T1 sequence (P15395 1-729)": "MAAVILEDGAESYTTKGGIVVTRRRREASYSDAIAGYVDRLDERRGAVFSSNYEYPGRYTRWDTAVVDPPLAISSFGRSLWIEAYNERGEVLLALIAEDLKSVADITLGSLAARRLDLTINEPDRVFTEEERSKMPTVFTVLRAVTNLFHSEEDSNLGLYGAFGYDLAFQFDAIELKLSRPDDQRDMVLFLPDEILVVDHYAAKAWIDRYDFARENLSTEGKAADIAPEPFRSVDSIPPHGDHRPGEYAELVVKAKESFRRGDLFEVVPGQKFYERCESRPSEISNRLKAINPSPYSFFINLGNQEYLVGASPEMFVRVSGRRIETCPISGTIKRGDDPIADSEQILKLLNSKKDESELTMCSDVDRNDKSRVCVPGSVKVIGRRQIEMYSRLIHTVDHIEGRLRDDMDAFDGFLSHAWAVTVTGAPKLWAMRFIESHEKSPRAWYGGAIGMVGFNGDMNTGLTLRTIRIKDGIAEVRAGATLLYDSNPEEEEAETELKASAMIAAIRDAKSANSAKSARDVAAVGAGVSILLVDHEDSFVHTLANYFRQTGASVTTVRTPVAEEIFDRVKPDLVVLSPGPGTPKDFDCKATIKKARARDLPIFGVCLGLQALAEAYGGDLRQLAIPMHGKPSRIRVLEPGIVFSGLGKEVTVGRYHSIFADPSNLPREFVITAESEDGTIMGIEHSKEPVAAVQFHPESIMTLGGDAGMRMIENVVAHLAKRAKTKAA", "assay": "Activity assay of crude cell extract by HPLC", "assay_type": "biochemical", "conditions": "BL-21 cells with pMON66596, HPLC, read-out: ICso (trp)", "from_the_text": "pMON66596 was transformed into BL-21 cells and induced with IPTG to express protein."}, "[2]": {"tested_on": "Agrobacterium tumefaciens AS", "assay": "Anthranilate synthase enzyme assay and kinetic analysis of purified enzymes", "assay_type": "biochemical", "conditions": "for Km: 25° C.", "experimental": "Agrobacterium tumefaciens AS wild type and mutant enzymes were expressed in E. coli as described in Example 1. The purification of all the Agrobacterium tumefaciens AS enzymes, including wild type and mutants thereof, was performed at 4° C. The cells (approximate wet weight of 1 g) were suspended in 20 ml of purification buffer (50 mM potassium phosphate, pH 7.3, 10 mM MgCl2, 10 mM 2-mercaptoethanol, 10% glycerol) and lysed by ultrasonication (Branson sonifier Cell Disruptor, W185). Supernatant was collected after centrifugation of the homogenate at 20,000×g for 15 min. The supernatant was subjected to ammonium sulfate fractionation (30 to 65% saturation). The precipitate was collected after centrifugation at 20,000×g for 15 min and dissolved in 3 ml of the purification buffer and then loaded as a whole on an Econo-Pac 10DG desalting column, pre-equilibrated with the same buffer. Fractions containing the enzyme were detected by the developed assay and pooled. The pooled enzyme (4.3 mls) was loaded on a 10 ml DEAF Sephacel (Pharmacia Biotech) column (1.5×7.5 cm) equilibrated with the same buffer. The column was washed with 30 ml of the purification buffer and the enzyme was eluted with 30 ml of 50 mM NaCl in the same buffer. Fractions containing high AS activity were pooled and precipitated by 65% ammonium sulfate saturation and isolated and desalted as above. Fractions containing the enzyme were pooled and stored at −80° C.\nThe standard assay for Agrobacterium tumefaciens AS was performed at 25° C. in an assay buffer containing 100 mM potassium phosphate, pH 7.0, 10 mM MgCl2, 1 mM dithiothreitol, 200 μM chorismate and 10 mM L-glutamine. The reaction was started by adding 30 μl of enzyme to the reaction mixture and mixing. The formation of anthranilate was directly monitored by the absorbance increase at 320 m for 3 minutes. Initial rate of reaction was calculated as unit absorbance increase per second based on the slope of the absorbance change over the reaction time. Km for chorismate (Km^Cho) was determined in the total volume of 1 ml assay buffer containing 100 mM potassium phosphate, pH 7.0, 10 mM MgCl2, 1 mM dithiothreitol with 10 mM L-glutamine and varying the concentration of chorismate between 2.5-100 μM chorismate. The Km for glutamine (Km^Gln) was determined in the total volume of 1 ml assay buffer containing 100 mM potassium phosphate, pH 7.0, 10 mM MgCl2, 1 mM dithiothreitol with 200 μM chorismate and varying the concentration of L-glutamine between 0.1-2 mM L-glutamine. IC50 for tryptophan (IC50^Trp) was determined with in the total volume of 1 ml assay buffer containing 100 mM potassium phosphate, pH 7.0, 10 mM MgCl2, 1 mM dithiothreitol, 10 mM L-glutamine, 200 μM chorismate and varying the concentration of L-tryptophan between 0.1-10 mM L-tryptophan. Kinetic parameters and IC50 of AS were calculated after fitting the data to a non-linear regression program (GraFit)."}, "soy seed": {"tested_on": "soy seed", "assay": "Free amino acid analysis of soy seed (tryptophan content)", "assay_type": "in vivo, Glycine max", "conditions": "R1 soy seeds expressing the mutant protein", "experimental": "Amino Acid Extraction: About 50 mg of crushed soy seed (5 mg of Arabidopsis) material was placed in each centrifuge vial. One milliliter of 5% trichloroacetic acid was added to each sample (100 μl for Arabidopsis). The samples were vortexed, and allowed to sit, with agitation, at room temperature for 15 min. They were then microcentrifuged for 15 min at 14000 rpm. Some of the supernatant was then removed, placed in a HPLC vial and sealed. Samples were kept at 4° C. in the analysis queue.\nAmino Acid Analysis: The reagents utilized for amino acid analysis included the OPA reagent (o-phthalaldehyde and 3-mercaptopropionic acid in borate buffer (Hewlett-Packard, PN 5061-3335)) where the borate buffer (0.4 N in water, pH 10.2). The analysis was performed using the Agilent 1100 series HPLC system as described in the Agilent Technical Publication, “Amino Acid Analysis Using Zorbax Eclipse-AAA Columns and the Agilent 1100 HPLC”, Mar. 17, 2000. First, 0.5 μl of the sample was derivatized with 2.5 μl of OPA reagent in 10 μl of borate buffer. Second, the derivative is injected onto a Eclipse XDB-C18 5 μm, 4.6×150 mm column using a flow rate of 1.2 ml/min. Amino acid concentrations were measured using fluorescence: excitation at 340 nm, emission at 450 nm. Elution was with a gradient of HPLC Buffers A and B according to Table A, where HPLC Buffer A was 40 mM Na2HPO4, pH=7.8 and HPLC Buffer B was 9:9:2::Methanol:Acetonitrile:Water.\nAmino acid standards were prepared from the dry chemicals, using all amino acids of interest. Proline analysis required an additional derivatization step with 9-fluorenylmethyl-chloroformate (FMOC). Amino acid standards were also sometimes purchased in concentrations ranging from 0 to 100 μg/ml. Samples were reported in μg/g of seed powder.\nMature R1 seed is produced and analyzed for free amino acid content using fluorescence detection as described in Agilent Technologies Technical Bulletin REV14. Five seeds are chosen for single seed analysis from each event. […] The highest levels of tryptophan have a negative impact on germination."}, "Agro AS": {"tested_on": "Agro AS", "assay": "Agro AS enzyme assay, HPLC end-point, desalted extracts of individual soybean seeds", "assay_type": "biochemical, Agrobacterium tumefaciens", "conditions": "R1 soy seeds carrying the mutant allele", "experimental": "The specific activity of anthranilate synthase was measured in eleven transformation events carrying the pMON58120 construct. Individual soybean immature seeds were analyzed using an HPLC-based end-point assay based on the method described by C. Paulsen (J. Chromatogr., 547:155-160 (1991)). Briefly, desalted extracts were generated from individual seeds in grinding buffer (100 mM Tris pH7.5, 10% glycerol, 1 mM EDTA, 1 mM DTT) and incubated for 30 min with reaction buffer (100 mM tris pH 7.5, 1 mM chorismate, 20 mM glutamine, and 10 mM MgCl2). Agro AS activity was measured in the presence or absence of 25 mM trp. The reaction was stopped with phosphoric acid and the amount of anthranilate formed was quantified by HPLC using a fluorescence detector set at 340 nm/excitation and 410 nm/emission."}, "[3]": {"tested_on": "Ruta graveolens anthranilate synthase", "conditions": "Bohlmann et al. 1996; cited from earlier work"}}, "note": "Changes are numbered by the printed parent chain. Read-outs that look alike come from different tables or passages of the source.", "data": [{"molecule": "N[C@@H](Cc1c[nH]c2ccccc12)C(=O)O", "note": "[tryptophan, L-tryptophan]", "values": [{"measurement": "IC50", "setting": "[1]", "result": "~10", "unit": "µM"}]}, {"molecule": "B1", "values": [{"measurement": "Km", "setting": "[2]; pH 7.0, 200 μM chorismate, L-glutamine varied, read-out: Km^Gln", "result": 140, "unit": "µM"}, {"measurement": "Km", "setting": "[2]; pH 7.0, 10 mM L-glutamine, chorismate varied, read-out: Km^Cho", "result": 18, "unit": "µM"}, {"measurement": "IC50", "setting": "[2]; inhibition by L-tryptophan, 10 mM L-glutamine, 200 μM chorismate", "result": 450, "unit": "µM"}, {"measurement": "kcat", "setting": "[2]; purified enzyme from E. coli", "result": 0.44, "unit": "s⁻¹"}, {"measurement": "amounts of tryptophan", "setting": "soy seed", "result": "very high amounts of tryptophan"}, {"measurement": "tryptophan-resistant anthranilate synthase activity", "setting": "Agro AS", "result": "Very high levels"}]}, {"molecule": "B2", "values": [{"measurement": "amounts of tryptophan", "setting": "soy seed", "result": "very high amounts of tryptophan"}, {"measurement": "tryptophan-resistant anthranilate synthase activity", "setting": "Agro AS", "result": "Very high levels"}]}, {"molecule": "B3", "values": [{"measurement": "sensitivity to tryptophan inhibition", "setting": "[3]", "result": "less sensitive to tryptophan inhibition"}]}]}
